According to patent US20230279132A1, “TREATMENT OF B CELL MALIGNANCIES” (NOVARTIS AG, priority 2020, published 2023):

Molecular target: B-cell activating factor receptor (BAFF-R) (human) (UniProt Q96RJ3)
Experiment: receptor occupancy in patients with CLL given VAY736 i.v. with ibrutinib (clinical study CVAY736Y2102); method not stated

- tissue receptor occupancy: > 99%
B1: ianalumab (antibody, human IgG1, kappa, V domains shown)
VH: QVQLQQSGPGLVKPSQTLSLTCAISGDSVSSNSAAWGWIRQSPGRGLEWLGRIYYRSKWYNSYAVSVKSRITINPDTSKNQFSLQLNSVTPEDTAVYYCARYDWVPKIGVFDSWGQGTLVTVSS
VL: DIVLTQSPATLSLSPGERATLSCRASQFISSSYLSWYQQKPGQAPRLLIYGSSSRATGVPARFSGSGSGTDFTLTISSLEPEDFAVYYCQQLYSSPMTFGQGTKVEIKR
